The values that follow come from patent publication US11254722B2, “Recombinant proteins and uses thereof” (ACADEMIA SINICA, priority 2017, dated 2022).

In test [1] the test system is hep3B cells. The test is described as follows: hep3B proliferation assay. In kind it is cell-based, human. Conditions: Homo sapiens, Hep3B, FIG. 15, read-out: IC50 of erlotinib to EGFR-wildtype hep3B cells. Here is the method:
For the proliferation assay, cells except for HUVEC were seeded at a density of 1,000 to 6,000 in 96 wells in an assay buffer of DMEM/F12 plus 0.2% BSA and 10 ug/ml transferrin. Chemical inhibitors were added after 16-20 hours after plating; IGF-1 or other growth factors or test chimeras in assay buffer were added at the time of plating or 16-20 hours after plating. 5,000 HUVEC ells were plated in poly-L-lysine coated 96 wells in M199 with 1%/FBS and HEPES. After 3 to 4 days of culture, growth was determined by incubating cells with Alamar blue for 4 to 6 hours and then the fluorescence (RFU) at 544/590 nm was read. For long term proliferation assays, cells were plated in the growth media with 5% or 10% FBS at densities of 500 to 10,000 cells per cm^2 growth area and grown for 7 to 21 days. Inhibitors and effectors were added 1-4 days after plating. Cells were exposed to cisplatin or gemcitabine for two days. Medium was renewed twice weekly. At completion, cells were fixed and then stained with Giemsa.
The human hepatoma cell line hep3B could be stimulated by many growth factors including IGF-1, IGF-2, HGF, bFGF, VEGF, and neuregulin.

Test [2] deals with PC-9 tumors. The experiment in a line: PC-9 subcutaneous tumors in mice, low dose erlotinib. In kind it is in vivo. The settings on record: erlotinib 25 mg/kg 3 times per week; FIG. 27. Here is the method:
(§1) 5×10exp6 PC-9 non-small cell lung cancer cells were injected subcutaneously in Nod scid gamma (NSG) mice. […] Erlotinib in 6% captisol was dosed orally daily at 25 mg/kg; IGFBP3Fc (3(del3)3) was dosed intraperitoneally at 25 mg/kg three times per week; control animals were administered vehicle. Dosing was started on day 11; erlotinib and erlotinib plus D3 was discontinued on day 19; D3 injections were discontinued on day 22.
Subcutaneous PC-9 tumors were generated and measured as above. Chimera D3 was dosed as above; erlotinib was dosed at 25 mg/kg 3 times per week in order to examine the effect of the chimera D3 on the tumor growth with suboptimal erlotinib dosing. The treatment started on day 8 and ended on day 22.

In test [3] the test system is PC-9 non-small cell lung cancer cells. The test is described as follows: PC-9 subcutaneous tumors in NSG mice, daily erlotinib. Format: in vivo. The settings on record: erlotinib alone, 25 mg/kg orally daily; day 20. Here is the method: as §1
Test [4] deals with nrgbx. The experiment in a line: Biacore binding to nrgbx. Details: key: +: sufficient to bind; −: unable to bind. Conditions: tested in .65M NaCL. The method, then: (§2) Biacore binding was performed at David Myszka's laboratory at the University of Utah or at the Genomic Research Center at Academia Sinica. Surfaces of binding protein chimera were made via chemical immobilization on a CM4 chip using standard amine coupling chemistry. […] Excess surface carboxyl activated sites on all four flow cells was blocked using the doubly positively charged species ethylenediamine. Binding experiments (but not immobilizations) in HBS-P (10 mM HEPES pH 7.4, 150 mM NaCl, 0.05% P20), The HBS-P was supplemented with BSA at 0.2 mg/mL, or HBS-P was supplemented with 500 mM NaCl (650 mM NaCl, final concentration). Analytes were also reconstituted in the corresponding buffer. All experiments were performed at 25° C. 1/150 dilutions of phosphoric acid were used to regenerate IGFBP3-Fc surfaces and a sequence of 3 M MgCl2 followed by 5 M GuCl was used to regenerate surfaces immobilized with growth factor. Dissociation constants reported below used immobilized binding protein unless noted. Differences between binding constants may be expected between growth factor immobilization and chimera immobilization.

The target of test [5] is T1, IGF-2 (Homo sapiens, UniProt P01344).
T1 construct: purchased R&D Sciences or SinoBiologicals
The experiment in a line: Biacore binding to IGF-2. Details: key: +: sufficient to bind; −: unable to bind. The settings on record: tested in .65M NaCL. Here is the method:
as §2

For test [6], the target named is T2, IGF-1 (Homo sapiens, UniProt P05019).
T2 construct: purchased R&D Sciences or SinoBiologicals
The experiment in a line: Biacore binding to IGF-1. Conditions: tested in .65M NaCL. Details: key to growth factor binding, igf1: +: sufficient to bind; −: unable to bind. Here is the method:
as §2

Test [7] has as its target T3, bFGF (Homo sapiens, UniProt P09038).
T3 construct: purchased R&D Sciences or SinoBiologicals
The experiment in a line: Biacore binding to bFGF. Details: key: +: sufficient to bind; −: unable to bind. The settings on record: tested in .65M NaCL. Here is the method: as §2

The target in test [8] is T4, VEGF B (Homo sapiens, UniProt P49765).
T4 construct: purchased R&D Sciences or SinoBiologicals
T4 sequence (P49765 22-207): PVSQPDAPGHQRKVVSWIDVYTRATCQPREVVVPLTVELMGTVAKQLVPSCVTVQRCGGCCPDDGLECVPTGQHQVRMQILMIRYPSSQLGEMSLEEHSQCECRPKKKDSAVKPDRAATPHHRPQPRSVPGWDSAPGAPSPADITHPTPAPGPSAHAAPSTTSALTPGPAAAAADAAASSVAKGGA
The experiment in a line: Biacore binding to VEGF B. Details: key: +: sufficient to bind; −: unable to bind. Conditions: tested in .65M NaCL. Here is the method: as §2

The target in test [9] is T5, PDGF AB (Homo sapiens, UniProt P01127+P04085).
T5 construct: purchased R&D Sciences or SinoBiologicals
The test is described as follows: Biacore binding to PDGF AB. Details: key: +: sufficient to bind; −: unable to bind. Conditions: tested in .65M NaCL. Here is the method: as §2

In test [10] the target is T6, nrgEGF (amino acids Thr176-Lys246 of neuregulin-beta 1) (Homo sapiens, UniProt Q02297).
T6 construct: Thr176-Lys246 of neuregulin-beta 1; purchased R&D Sciences or SinoBiologicals
T6 sequence (Q02297 176-246 isoform Q02297-6): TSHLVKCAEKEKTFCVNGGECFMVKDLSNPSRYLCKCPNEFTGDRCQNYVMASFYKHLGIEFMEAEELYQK
The test is described as follows: Biacore binding to nrgEGF. The method, then:
as §2
In this example, erbB4 domain 1 was attached to the N-terminus of the recombinant IGFBP3-Fc or the recombinant IGFBP3-v1v2-Fc.

Read-outs that look alike come from different tables or passages of the source.

T3 sequence (P09038 143-288): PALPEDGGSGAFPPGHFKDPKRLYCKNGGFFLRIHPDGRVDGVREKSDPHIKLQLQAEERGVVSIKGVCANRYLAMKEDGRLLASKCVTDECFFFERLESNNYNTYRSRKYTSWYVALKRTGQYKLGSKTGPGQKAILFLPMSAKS
T5 sequence (P01127 82-190 limits assumed, other chains not shown): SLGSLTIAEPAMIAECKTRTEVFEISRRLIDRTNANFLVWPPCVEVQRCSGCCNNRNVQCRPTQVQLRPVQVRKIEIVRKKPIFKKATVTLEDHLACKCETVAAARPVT
T1 sequence (P01344 25-91): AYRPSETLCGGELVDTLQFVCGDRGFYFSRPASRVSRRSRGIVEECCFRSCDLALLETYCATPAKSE
T2 sequence (P05019 49-118 limits assumed): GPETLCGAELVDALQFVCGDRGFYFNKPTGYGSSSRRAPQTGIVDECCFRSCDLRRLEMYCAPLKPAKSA

Regarding `C#Cc1cccc(Nc2ncnc3cc(OCCOC)c(OCCOC)cc23)c1` [erlotinib, reference compound], the IC50 was ~10000 nM in test [1] (cells not treated with chimera h3t33Fc) and ~100 nM in test [1] (with the addition of 100 nM chimera h3t33Fc). For the same molecule, the “tumor regression with intermittent dosing” value in [2] is listed as “did not cause the tumor regression”. Besides, in test [3], the “tumor volume of treated to control (T/C)” value is recorded as 38%.

B1: 4382: SEQ ID NO: 25; the complete link region (protein)
chain: MSEVPVARVWLVLLLLTVQVGVTAGGASSAVNASAVSRLRAYLLPAPPAPGNASESEEDRSAGSVESPSVSSTHRVSDPKFHPLHSKIIIIKKGHAKDSQRYKVDYESQSTDTQNFSSESKREVECPPCPAPPVAGPSVFLFPPKPKDQLMISRTPEVTCVVVDVSHEDPEVKFNWYVDGVEVHNAKTKPREEQYNSTYRVVSVLTVLHQDWLNGKEYKCKVSNKGLPSSIEKTISKAKGQPREPQVYTLPPSREEMTKNQVSLTCLVKGFYPSDIAVEWESNGQPENNYKTTPPVLDSDGSFFLYSKLTVDKSRWQQGNVFSCSVMHEGLHNHYTQKSLSLSPGK
Regarding B1, the “growth factor binding, nrgbx” value in test [4] is “−”. Also, in test [5], the “growth factor binding, igf2” value is reported as “−”. Moreover, in [6], the “growth factor binding, igf1” value was “−”. Also, the “growth factor binding, bFGF” value in test [7] is recorded as “−”. Besides, the “growth factor binding, VEGF B” value in [8] is “−”. Also, in test [9], the “growth factor binding, PDGF AB” value was “−”.

B2: 4141: SEQ ID NO: 23; a fragment comprising the N-terminus and the linker region from h3t33 (protein)
chain: MSEVPVARVWLVLLLLTVQVGVTAGGASSAGLGPVVRCEPCDARALAQCAPPPAVCAELVREPGCGCCLTCALSEGQPCGIYTERCGSGLRCQPSPDEARPLQALLDGRGLCVNASAVSKGHAKDSQRYKVDYESQSTDTQNFSSESKRETEYVECPPCPAPPVAGPSVFLFPPKPKDQLMISRTPEVTCVVVDVSHEDPEVKFNWYVDGVEVHNAKTKPREEQYNSTYRVVSVLTVLHQDWLNGKEYKCKVSNKGLPSSIEKTISKAKGQPREPQVYTLPPSREEMTKNQVSLTCLVKGFYPSDIAVEWESNGQPENNYKTTPPVLDSDGSFFLYSKLTVDKSRWQQGNVFSCSVMHEGLHNHYTQKSLSLSPGK
B2: the “growth factor binding, nrgbx” value in test [4] was “+”. For the same molecule, the “growth factor binding, igf2” value in [5] is given as “+”. For the same molecule, the “growth factor binding, igf1” value in test [6] is given as “+”. For the same molecule, the “growth factor binding, bFGF” value in test [7] is “+”. For the same molecule, the “growth factor binding, VEGF B” value in test [8] was “+”. The “growth factor binding, PDGF AB” value in test [9] is listed as “+”.

B3: 4142: SEQ ID NO: 24; the N-terminus only (protein)
chain: MSEVPVARVWLVLLLLTVQVGVTAGGASSAGLGPVVRCEPCDARALAQCAPPPAVCAELVREPGCGCCLTCALSEGQPCGIYTERCGSGLRCQPSPDEARPLQALLDGRGLCVNASAVSVECPPCPAPPVAGPSVFLFPPKPKDQLMISRTPEVTCVVVDVSHEDPEVKFNWYVDGVEVHNAKTKPREEQYNSTYRVVSVLTVLHQDWLNGKEYKCKVSNKGLPSSIEKTISKAKGQPREPQVYTLPPSREEMTKNQVSLTCLVKGFYPSDIAVEWESNGQPENNYKTTPPVLDSDGSFFLYSKLTVDKSRWQQGNVFSCSVMHEGLHNHYTQKSLSLSPGK
Regarding B3, in test [4], the “growth factor binding, nrgbx” value is “−”. In test [5], the “growth factor binding, igf2” value is recorded as “+”. Also, the “growth factor binding, igf1” value in [6] is “+”. Also, the “growth factor binding, bFGF” value in test [7] is given as “−”. In [8], the “growth factor binding, VEGF B” value is listed as “−”. Moreover, in test [9], the “growth factor binding, PDGF AB” value is recorded as “−”.

B4: IGFBP3-v1v2-erbB4-Fc: ErbB4-GS-IGFBP3-gly 3 linker-v1v2-Fc, SEQ ID NO: 20 (protein)
chain: MSEVPVARVWLVLLLLTVQVGVTAGVQPSDSQSVCAGTENKLSSLSDLEQQYRALRKYYENCEVVMGNLEITSIEHNRDLSFLRSVREVTGYVLVALNQFRYLPLENLRIIRGTKLYEDRYALAIFLNYRKDGNFGLQELGLKNLTEILNGGVYVDQNKFLCYADTIHWQDIVRNPWPSNLTLVSTNGSSGCGRCHKSCTGRCWGPTENHCQTLTRTVGGGGSGGGGSGGGGSGGGGSGGGGGASSAGLGPVVRCEPCDARALAQCAPPPAVCAELVREPGCGCCLTCALSEGQPCGIYTERCGSGLRCQPSPDEARPLQALLDGRGLCVNASAVSKGHAKDSQRYKVDYESQSTDTQNFSSESKRETEYGPCRREMEDTLNHLKFLNVLSPRGVHIPNCDKKGFYKKKQCRPSKGRKRGFCWCVDKYGQPLPGYTTKGKEDVHCYSMQSKAPPAPGNASESEEDRSAGIYIFISDTGRPFVEMYSEIPEIIHMTEGRELVIPCRVTSPNITVTLKKFPLDTLIPDGKRIIWDSRKGFIISNATYKEIGLLTCEATVNGHLYKTNYLTHRQGYRIYDVVLSPSHGIELSVGEKLVLNCTARTELNVGIDFNWEYPSSKHQHKKLVNRDLKTQSGSEMKKFLSTLTIDGVTRSDQGLYTCAASSGLMTKKNSTFVRVHEKVECPPCPAPPVAGPSVFLFPPKPKDQLMISRTPEVTCVVVDVSHEDPEVKFNWYVDGVEVHNAKTKPREEQYNSTYRVVSVLTVLHQDWLNGKEYKCKVSNKGLPSSIEKTISKAKGQPREPQVYTLPPSREEMTKNQVSLTCLVKGFYPSDIAVEWESNGQPENNYKTTPPVLDSDGSFFLYSKLTVDKSRWQQGNVFSCSVMHEGLHNHYTQKSLSLSPGK
B4 had a Kd in [10] of 11 nM.
